From US20240116985A1 (published 2024)
Each block holds one binder with its values, some of them ahead of it. Starred links: 1 amine or outer side, 2 acyl side, 3 side chain; linkers in the order of their positions; H or OH if unused. Positions of bridges follow the written chain, without caps; N, C: chain ends. Non-standard residues stand in square brackets, D forms with d. Primed or numbered codes have the meaning given here. B5(17) = 2,2-bis(4-pentenyl)glycine = 2-amino-2-(pent-4-en-1-yl)hept-6-enoic acid, stitching residue, C=CCCCC(CCCC=C)(N[*:1])C(=O)[*:2]; B5(4) = 2,2-bis(4-pentenyl)glycine = 2-amino-2-(pent-4-en-1-yl)hept-6-enoic acid (stitching residue), C=CCCCC(CCCC=C)(N[*:1])C(=O)[*:2]; B5(5) = 2,2-bis(4-pentenyl)glycine, 2-amino-2-(pent-4-en-1-yl)hept-6-enoic acid (stitching residue), C=CCCCC(CCCC=C)(N[*:1])C(=O)[*:2]; B5(21) = 2-amino-2-(pent-4-en-1-yl)hept-6-enoic acid, bis(4-pentenyl)glycine (stitching residue), C=CCCCC(CCCC=C)(N[*:1])C(=O)[*:2]; B5(14) = 2-amino-2-(pent-4-en-1-yl)hept-6-enoic acid (bis-pentenylglycine), C=CCCCC(CCCC=C)(N[*:1])C(=O)[*:2]; (NHnPr)AsnR = N4-propyl-L-asparagine, CCCNC(=O)C[C@H](N[*:1])C(=O)[*:2]; Phe(3-CF3) = N[C@@H](Cc1cccc(C(F)(F)F)c1)C(=O)O; Bta = N[C@@H](Cc1csc2ccccc12)C(=O)O; αAllylPro = C=CC[C@@]1(C(=O)O)CCCN1; S8 = C=CCCCCCC[C@](C)(N)C(=O)O

Assays:
[1] = molecular target: T1, full-length beta-Catenin (Uniprot ID P35222) (Homo sapiens (Human), UniProt P35222 1-781); test: fluorescence polarization competition; displacement of 5FAM-TCF4(10-53) from full-length beta-catenin
T1 construct: also called bCat; B-Catenin
T1 sequence: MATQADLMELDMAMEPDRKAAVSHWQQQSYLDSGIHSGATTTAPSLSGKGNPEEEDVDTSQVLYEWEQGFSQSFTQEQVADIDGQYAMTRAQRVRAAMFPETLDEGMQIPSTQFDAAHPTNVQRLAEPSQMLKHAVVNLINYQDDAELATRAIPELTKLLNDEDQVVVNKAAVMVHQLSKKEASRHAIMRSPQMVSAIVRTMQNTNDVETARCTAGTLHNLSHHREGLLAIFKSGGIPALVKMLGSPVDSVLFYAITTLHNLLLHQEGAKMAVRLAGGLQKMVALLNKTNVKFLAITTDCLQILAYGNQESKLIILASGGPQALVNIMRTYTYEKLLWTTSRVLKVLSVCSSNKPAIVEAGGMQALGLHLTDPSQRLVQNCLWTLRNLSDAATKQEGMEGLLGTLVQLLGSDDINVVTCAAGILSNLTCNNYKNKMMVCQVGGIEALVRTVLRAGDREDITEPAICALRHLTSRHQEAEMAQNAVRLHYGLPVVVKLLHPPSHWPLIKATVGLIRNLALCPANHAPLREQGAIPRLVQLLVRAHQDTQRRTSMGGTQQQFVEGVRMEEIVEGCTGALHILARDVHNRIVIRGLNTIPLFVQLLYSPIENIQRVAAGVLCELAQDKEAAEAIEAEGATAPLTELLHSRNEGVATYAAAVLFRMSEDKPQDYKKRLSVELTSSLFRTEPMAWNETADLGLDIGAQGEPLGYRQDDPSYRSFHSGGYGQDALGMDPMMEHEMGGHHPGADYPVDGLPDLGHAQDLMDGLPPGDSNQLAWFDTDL
Method: (§1) The plate was incubated protected from light for 60 minutes at 20° C. prior to read. Reads were performed on a CLARIOstar plate reader (BMG Labtech) in duplicate, and data were fitted to a 1:1 binding model with hill slope using an in-house script. All provided concentrations are final concentrations.

[2] = molecular target: T2, full-length beta-Catenin (Uniprot ID P35222) (Homo sapiens (Human), UniProt P35222 1-781); test: fluorescence polarization competition vs 5FAM-TCF4(10-53) on full-length beta-catenin
T2 construct: also called bCat; B-Catenin
T2 sequence: T1 sequence
Method: as §1

[3] = molecular target: T3, full-length beta-Catenin (Uniprot ID P35222) (Homo sapiens (Human), UniProt P35222 1-781); test: fluorescence polarization competition; 10 nM full-length beta-catenin, competitor 10 nM 5FAM-TCF4(10-53)
T3 construct: also called bCat; B-Catenin
T3 sequence: T1 sequence
Method: as §1

B2: I-331 (peptide)
peptide: Ac-[αAllylPro]DA[B5(14)]DDAAHV[S8]FWQ-NH2
modifications: staple 1-4, 4-11; not fully specified (residue 9)
notes: Stapled peptide composition; also called Ac-PL3-Asp-Ala-B5-Asp-Asp-Ala-Ala-3meH-Val-S8-Phe-Trp-Gln-NH2
IC50 [2]: 5 µM

B3: I-373 (peptide)
peptide: Ac-[αAllylPro]DA[B5(4)]DDAA[Phe(3-CF3)]V[S8]F[Bta]Q-NH2
modifications: staple 1-4, 4-11
notes: Stapled peptide composition (olefin metathesis)
EC50 [3]: 0.945 µM

Binder: Ac-[αAllylPro]DA[B5(21)][(NHnPr)AsnR]DAAFV[S8]F[Bta]Q-NH2 (staple 1-4, 4-11, Stapled (stitched) peptide composition) [I-537]
EC50 [1]: 5 µM

Binder: Ac-[αAllylPro]DL[B5(5)]DDAAFN[S8]F[Bta]Q-NH2 (staple 1-4, 4-11) [I-562]
EC50 [1]: 0.051 µM

B4: I-561 (peptide)
peptide: XDLXDDAAFQXFXH
modifications: not fully specified; Ac-PL3-Asp-Leu-B5-Asp-Asp-Ala-Ala-Phe-Gln-S8-Phe-BztA-His-NH2; N-terminal acetyl, C-terminal amide; non-natural: PL3(1), B5(4), S8(11), BztA(13); staples PL3(1)-B5(4) and B5(4)-S8(11)
EC50 [1]: 0.034 µM

B7: I-565 (peptide)
peptide: XDLXDDAAFNXFXH
modifications: not fully specified; Ac-PL3-Asp-Leu-B5-Asp-Asp-Ala-Ala-Phe-Asn-S8-Phe-BztA-His-NH2; N-terminal acetyl, C-terminal amide; non-natural: PL3(1), B5(4), S8(11), BztA(13); staples PL3(1)-B5(4) and B5(4)-S8(11)
EC50 [1]: 0.013 µM

Binder: Ac-[αAllylPro]DL[B5(4)]DEAAFN[S8]F[Bta]H-NH2 (staple 1-4, 4-11, Stapled (stitched) peptide composition) [I-543]
EC50 [1]: 0.032 µM

B8: I-566 (peptide)
peptide: XDVXDDAAFNXFXQ
modifications: not fully specified; Ac-PL3-Asp-Val-B5-Asp-Asp-Ala-Ala-Phe-Asn-S8-Phe-BztA-Gln-NH2; N-terminal acetyl, C-terminal amide; non-natural: PL3(1), B5(4), S8(11), BztA(13); staples PL3(1)-B5(4) and B5(4)-S8(11)
EC50 [1]: 0.076 µM

B10: I-554 (peptide)
peptide: XDIXDDAAFNXFXH
modifications: not fully specified; Ac-PL3-Asp-Ile-B5-Asp-Asp-Ala-Ala-Phe-Asn-S8-2OMeF-BztA-His-NH2; N-terminal acetyl, C-terminal amide; non-natural: PL3(1), B5(4), S8(11), 2OMeF(12), BztA(13); staples PL3(1)-B5(4) and B5(4)-S8(11)
EC50 [1]: 0.0275 µM

B11: I-553 (peptide)
peptide: XDIXDDAAFNXFXH
modifications: not fully specified; Ac-PL3-Asp-Ile-B5-Asp-Asp-Ala-Ala-Phe-Asn-S8-2OMeF-BztA-His-NH2; N-terminal acetyl, C-terminal amide; non-natural: PL3(1), B5(4), S8(11), 2OMeF(12), BztA(13); staples PL3(1)-B5(4) and B5(4)-S8(11)
EC50 [1]: 0.061 µM

The remaining binders from weak to strong by EC50 [1], led by results:

EC50 [1]: 0.109 µM
B1: I-542 (peptide)
peptide: XDTXDEAAFQXFXQ
modifications: not fully specified; Ac-PL3-Asp-TOMe-B5-Asp-Glu-Ala-Ala-Phe-Gln-S8-Phe-BztA-Gln-NH2; N-terminal acetyl, C-terminal amide; non-natural: PL3(1), TOMe(3), B5(4), S8(11), BztA(13); staples PL3(1)-B5(4) and B5(4)-S8(11)

EC50 [1]: 0.081 µM
Binder: Ac-[αAllylPro]DL[B5(5)]DDAAFQ[S8]F[Bta]H-NH2 (staple 1-4, 4-11) [I-560]

EC50 [1]: 0.071 µM
B5: I-549 (peptide)
peptide: XDIXDDAAFNXFXQ
modifications: not fully specified; Ac-PL3-Asp-Ile-B5-Asp-Asp-Ala-Ala-Phe-Asn-S8-2OMeF-BztA-Gln-NH2; N-terminal acetyl, C-terminal amide; non-natural: PL3(1), B5(4), S8(11), 2OMeF(12), BztA(13); staples PL3(1)-B5(4) and B5(4)-S8(11)

EC50 [1]: 0.056 µM
B9: I-558 (peptide)
peptide: XDLXDDAAFQXFXQ
modifications: not fully specified; Ac-PL3-Asp-Leu-B5-Asp-Asp-Ala-Ala-Phe-Gln-S8-Phe-BztA-Gln-NH2; N-terminal acetyl, C-terminal amide; non-natural: PL3(1), B5(4), S8(11), BztA(13); staples PL3(1)-B5(4) and B5(4)-S8(11)

EC50 [1]: 0.043 µM
B6: I-559 (peptide)
peptide: XDLXDDAAFQXFXQ
modifications: not fully specified; Ac-PL3-Asp-Leu-B5-Asp-Asp-Ala-Ala-Phe-Gln-S8-Phe-BztA-Gln-NH2; N-terminal acetyl, C-terminal amide; non-natural: PL3(1), B5(4), S8(11), BztA(13); staples PL3(1)-B5(4) and B5(4)-S8(11)

EC50 [1]: 0.036 µM
Binder: Ac-[αAllylPro]DL[B5(5)]DDAAFN[S8]F[Bta]H-NH2 (staple 1-4, 4-11) [I-564]

EC50 [1]: 0.035 µM
Binder: Ac-[αAllylPro]DI[B5(17)]DEAAFN[S8]F[Bta]Q-NH2 (staple 1-4, 4-11, Stapled (stitched) peptide composition) [I-557]

EC50 [1]: 0.03 µM
B12: I-550 (peptide)
peptide: XDIXDDAAFNXFXQ
modifications: not fully specified; Ac-PL3-Asp-Ile-B5-Asp-Asp-Ala-Ala-Phe-Asn-S8-2OMeF-BztA-Gln-NH2; N-terminal acetyl, C-terminal amide; non-natural: PL3(1), B5(4), S8(11), 2OMeF(12), BztA(13); staples PL3(1)-B5(4) and B5(4)-S8(11)
